Results: US20040009911A1, “Hepsin substrates and prodrugs” (IRM, LLC, priority 2002, published 2004)
ACC/ACMC = fluorogenic leaving group

Experiments:
recombinant hepsin [1] = target: T1, recombinant hepsin (Homo sapiens, UniProt P05981); test: Activation of pro-uPA by hepsin, monitored with uPA substrate GTAR-acc; format: biochemical; set-up: made in house; conditions: 1 nM recombinant hepsin, 100 μM GTAR-acc; FIG. 10 (squares)
Procedure: To test whether hepsin is capable of activating pro-uPA (and thereby potentially initiating this proteolytic cascade), uPA was screened through a coumarin-based substrate library and a substrate was designed to monitor uPA proteolytic activity. The substrate designed to monitor uPA activity is Acetyl-Gly-Thr-Ala-Arg-[7-amino-4-carbomoylcoumarin] (GTAR-acc). 2 μM of pro-uPA was incubated with 1 nM of recombinant hepsin and 100 μM of GTAR-acc.
Target sequence in this assay (P05981 whole entry): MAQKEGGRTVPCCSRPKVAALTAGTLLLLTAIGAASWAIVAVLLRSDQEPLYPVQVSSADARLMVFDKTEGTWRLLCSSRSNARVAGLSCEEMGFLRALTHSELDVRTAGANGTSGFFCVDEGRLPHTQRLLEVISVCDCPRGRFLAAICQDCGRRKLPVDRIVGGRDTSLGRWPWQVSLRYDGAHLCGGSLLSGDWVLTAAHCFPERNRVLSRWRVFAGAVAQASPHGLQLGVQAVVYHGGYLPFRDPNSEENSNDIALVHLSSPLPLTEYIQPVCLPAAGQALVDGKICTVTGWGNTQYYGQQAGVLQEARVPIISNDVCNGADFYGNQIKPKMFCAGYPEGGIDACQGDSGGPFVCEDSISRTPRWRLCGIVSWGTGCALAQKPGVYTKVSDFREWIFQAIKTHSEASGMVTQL

recombinant hepsin [2] = target: T1, recombinant hepsin; test: Cleavage of fluorogenic tetrapeptide substrates by recombinant hepsin expressed in insect cells; format: biochemical; set-up: Hep136 (covering the prodomain and the catalytic domain); amino acids 46-417; honeybee melittin secretion signal (Mel) (N); made in house; host or cells: SP9 (Sf9) insect cells, baculovirus, pFastBac1; conditions: with and without a histidine tag
Procedure: SP9 cells were infected with recombinant virus at a MOI of 5-10 and the activity of hepsin in the supernatant was monitored by the hydrolysis of a fluorogenic peptide, KRLR-ACC. […] To determine the optimal expression time, activity was monitored for 72 hours after infection.
The activity of hepsin expressed and purified as described above was tested using the following substrates, which were synthesized based on the substrate specificity profile from the positional scanning libraries described above: Acetyl-Pro-Arg-Leu-Arg-ACC/ACMC and Acetyl-Lys-Arg-Leu-Arg-ACC/ACMC.
Target sequence in this assay (P05981 46-417): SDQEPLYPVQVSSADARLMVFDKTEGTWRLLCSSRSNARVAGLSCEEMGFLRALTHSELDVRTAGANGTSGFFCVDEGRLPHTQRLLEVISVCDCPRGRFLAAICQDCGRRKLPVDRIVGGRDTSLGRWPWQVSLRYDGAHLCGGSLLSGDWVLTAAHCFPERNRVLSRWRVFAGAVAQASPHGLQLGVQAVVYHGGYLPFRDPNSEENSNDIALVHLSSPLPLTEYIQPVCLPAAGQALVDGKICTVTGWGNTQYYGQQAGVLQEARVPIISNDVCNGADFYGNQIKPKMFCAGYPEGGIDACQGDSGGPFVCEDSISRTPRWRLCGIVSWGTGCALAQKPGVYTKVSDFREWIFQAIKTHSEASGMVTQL

| cleavage of GTAR-acc by hepsin (recombinant hepsin [1]) | cleavage by recombinant hepsin (recombinant hepsin [2]) | Substance |
| --- | --- | --- |
| only marginally cleaves |  | Acetyl-Gly-Thr-Ala-Arg-[7-amino-4-carbomoylcoumarin] (Ac-GTAR-{7‑amino‑4‑carbamoylcoumarin}) [GTAR-acc] |
|  | efficiently cleaved | Acetyl-Pro-Arg-Leu-Arg-ACC/ACMC (Ac-PRLR-{ACC/ACMC}; also: C-terminal ACC/ACMC fluorophore) [N-acetyl tetrapeptide hepsin substrate with C-terminal coumarin fluorophore (ACC or ACMC)] |
|  | efficiently cleaved | Acetyl-Lys-Arg-Leu-Arg-ACC/ACMC (Ac-KRLR-{ACC/ACMC}; also: C-terminal ACC/ACMC fluorophore) [N-acetyl tetrapeptide hepsin substrate with C-terminal coumarin fluorophore (ACC or ACMC)] |
